{"source": "patent KR20230171885A", "about": "(dated 2023)", "binders": {"B1": {"name": "항-TIGIT 항체 7A6 (7A6_VH3/Vk5) (antibody, human IgG1, kappa, V domains shown)", "VH": "QVQLQESGPGLVKPSQTLSLTCTVTGYSITSDYAWNWIRQPPGKGLEWMGYISYSGSARYNPSLKSRVTISRDTSKNQFSLKLSSVTAEDTATYYCARKGYPAYFAYWGQGTLVTVSS", "VL": "DIQMTQSPSSLSASVGDRVSITCKASQDVSTAVAWYQQKPGQAPRLLIYSASYRYTGVPDRFSGSGSGTDFTLTISSLQPEDFATYYCQHHYSTPYTFGQGTKLEIKR", "notes": "Parental IgG1/kappa antibody without RS15; also called 7A6 VH3/Vκ5; Parental Ab (7A6)"}}, "biological_target": "T1, 재조합 인간 TIGIT 단백질 (Acro Biosystems) (human, UniProt Q495A1 22-141)", "T1 construct": "Bought recombinant protein; also called recombinant human TIGIT; TIGIT 항원", "T1 sequence": "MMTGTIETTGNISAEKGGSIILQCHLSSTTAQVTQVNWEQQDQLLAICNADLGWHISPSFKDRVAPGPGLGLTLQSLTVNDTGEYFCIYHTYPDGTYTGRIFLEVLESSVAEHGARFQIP", "assay": "SPR, Biacore T200 multi-cycle kinetics, 25C; antibody captured on anti-human IgG CM5 chip, recombinant human TIGIT as analyte; 1:1 model"}
{"binder": "B1", "values": [{"measurement": "Kd", "result": 0.884, "unit": "nM"}, {"measurement": "koff", "result": 0.00158, "unit": "s⁻¹"}, {"measurement": "kon", "result": "1.78e+06", "unit": "M⁻¹ s⁻¹"}]}
